Measurements: article PMC4484809, “Formation of a Trimeric Xpo1-Ran[GTP]-Ded1 Exportin Complex Modulates ATPase and Helicase Activities of Ded1”

Legend:
[1] = molecular target: Ded1 wild type (Saccharomyces cerevisiae, UniProt P06634 1-604); experiment: EMSA; 3 mM AMP-PNP; challenged with unlabeled 41mer RNA; EMSA: 50 mM Tris pH 7.8, 60 mM NaCl, 2 mM MgCl2, 0.1 mg/mL BSA, 5% glycerol, 1 U/uL RNasin Plus, 0.01% NP-40, 1 mM DTT; 900 nM Ded1, 10 nM RNA, 20 min room temperature, then 41mer competitor RNA (27 uM solution) 1 min before 7% native PAGE at 4 C; details: protein: recombinant; tags: His-tag removed with preScission protease; N-terminal GP from vector; single-stranded
[2] = molecular target: Ded1 sNES (Saccharomyces cerevisiae, UniProt P06634 =D+1-604, A2D;E6K;Q7K;V8F;Q9G;N10T;internal_change); experiment: EMSA; 3 mM AMP-PNP; bound to the same extent as wild-type Ded1; EMSA: 50 mM Tris pH 7.8, 60 mM NaCl, 2 mM MgCl2, 0.1 mg/mL BSA, 5% glycerol, 1 U/uL RNasin Plus, 0.01% NP-40, 1 mM DTT; 900 nM Ded1, 10 nM RNA, 20 min room temperature, then 41mer competitor RNA (27 uM solution) 1 min before 7% native PAGE at 4 C; details: protein: recombinant; tags: His-tag removed with preScission protease; N-terminal GP from vector; single-stranded
[3] = molecular target: Xpo1;Ran[GTP] Q71L (Saccharomyces cerevisiae;Saccharomyces …, UniProt P30822;P32835 1-1071;1-219, |Q71L); experiment: EMSA; no Ded1; no significant supershift; EMSA: 50 mM Tris pH 7.8, 60 mM NaCl, 2 mM MgCl2, 0.1 mg/mL BSA, 5% glycerol, 1 U/uL RNasin Plus, 0.01% NP-40, 1 mM DTT; 900 nM Ded1, 10 nM RNA, 20 min room temp

CGAAUUCAAAACAAAACAAAACUAG (ssRNA) [25mer FAM-labeled ssRNA]
binding result [1]: binds | binding result [2]: binds | binding result [3]: no binding
